Test results published in paper PMC6707742.

Molecular target: coagulation factor IXa (FIXa) (human, UniProt P00740;P00740 47-191;227-461)
Experiment: SPR

Chain of coagulation factor IXa (FIXa) (P00740 47-191, chain 1 of 2): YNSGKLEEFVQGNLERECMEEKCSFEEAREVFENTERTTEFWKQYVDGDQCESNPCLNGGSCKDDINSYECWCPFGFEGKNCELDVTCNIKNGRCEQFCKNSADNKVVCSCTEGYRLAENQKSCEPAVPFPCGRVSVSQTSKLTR
Chain of coagulation factor IXa (FIXa) (P00740 227-461, chain 2 of 2): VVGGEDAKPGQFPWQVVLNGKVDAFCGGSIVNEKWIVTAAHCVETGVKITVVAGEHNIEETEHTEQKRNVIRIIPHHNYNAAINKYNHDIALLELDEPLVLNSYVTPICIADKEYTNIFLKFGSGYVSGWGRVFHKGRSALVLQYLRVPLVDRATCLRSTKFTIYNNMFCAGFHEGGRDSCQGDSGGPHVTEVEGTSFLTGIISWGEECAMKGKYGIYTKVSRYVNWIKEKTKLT

B1: RB006 (XNA)
RNA: GUGGACUAUACCGCGUAAUGCUGCCUCCAC
modifications: 5' 40 kDa branched mPEG; uppercase 2'-F, lowercase 2'-OMe in GUGGAcuAuAccGcGuAAuGcU(G)CcuCCAC; (G) unmodified; 3' inverted dT
binding result: binds
